Assay [1] deals with porcine stomach mucin (porcine). As to the kind of experiment: SPR; PSM coupled to a CM5 chip (5800 RU), HOL-18 as analyte in HBS buffer, 20 uL/min, 25 °C, BIAcore 3000, 1:1 model, BIAevaluation 3.0; bound lectin removed with 200 mM D-GlcNAc.
The target of assay [2] is HOL-18, 18 kDa chitotriose-binding lectin from Halichondria okadai (Halichondria okadai). Description: SDS-PAGE after timed heat treatment; purified lectin in sample buffer (0.2% SDS, with or without 2% 2-mercaptoethanol) heated at 70 °C for 5-60 min; the 36 kDa dimer was retained up to 15 min and dissociated within 20-30 min.
Assay [3] has the same target. As to the kind of experiment: SEC; gel permeation chromatography on Superdex 75 (1.0 x 32 cm), HPLC, 0.5 mL/min, 20 ug purified lectin, native conditions, calibrated with marker proteins.
Assay [4] has the same target.

As usually defined, the Kd is the constant that tells how readily two partners part at equilibrium. A high value points to weaker binding. Usually koff stands for the rate constant with which the complex falls apart. High values mean fast dissociation, low ones slow dissociation. For orientation: kon means the rate constant with which the complex forms. A higher kon goes with faster complex formation. As usually defined, the stoichiometry N is the number of molecules, sites or subunits per partner or assembly. “HOL-18, 18 kDa chitotriose-binding lectin from Halichondria okadai (natural protein)”: in assay [1], the Kd worked out at 4.4 µM, the koff came out at 0.0061 s⁻¹ and the kon came out at 1400 M⁻¹ s⁻¹. In addition, the stoichiometry N in assay [2] stood at 2. The stoichiometry N in assay [3] was 4.
Take “bovine submaxillary mucin (natural protein)”: in assay [4], the minimum inhibitory concentration of the hemagglutination of human type A erythrocytes by HOL-18 (16 HA units) came out at 125 µg/mL.
Still for that read-out and setting: the value for porcine stomach mucin (natural protein) was 10 µg/mL.

B1: fetuin (natural protein)
chain: IPLDPVAGYKEPACDDPDTEQAALAAVDYINKHLPRGYKHTLNQIDSVKVWPRRPTGEVYDIEIDTLETTCHVLDPTPLANCSVRQQTQHAVEGDCDIHVLKQDGQFSVLFTKCDSSPDSAEDVRKLCPDCPLLAPLNDSRVVHAVEVALATFNAESNGSYLQLVEISRAQFVPLPVSVSVEFAVAATDCIAKEVVDPTKCNLLAEKQYGFCKGSVIQKALGGEDVRVTCTLFQTQPVIPQPQPDGAEAEAPSAVPDAAGPTPSAAGPPVASVVVGPSVVAVPLPLHRAHYDLRHTFSGVASVESSSGEAFHVGKTPIVGQPSIPGGPVRLCPGRIRYFKI
modifications: O-linked oligosaccharides and sialyl N-acetyllactosamine (Neu5Acα2-3/6Galβ1-4GlcNAc) chains in complex-type N-linked glycans
As to B1, the minimum inhibitory concentration of the hemagglutination of human type A erythrocytes by HOL-18 (16 HA units) in assay [4] was found to be 125 µg/mL.
